The data set concerns Escherichia coli TOP10. Kind of data set: shrunken log2 fold change of peptide-encoding DNA abundance (4.5 h post-induction vs induction); higher = less antimicrobial activity (less host growth inhibition). The note with it: time post-induction: 4.5 h; library: site-saturation at positions 5, 18, 19, 20.
With RRIRCRPPRLPRPRPRPQLIPRP, the “shrunken log2 fold change” value was 0.229.

On to RRIRKRPPRLPRPRPRPYGVPRP, for which the “shrunken log2 fold change” value was 0.0715.

Turning to RRIRERPPRLPRPRPRPQDIPRP, the “shrunken log2 fold change” value was -0.135. Consider RRIRRRPPRLPRPRPRPQPQPRP, for which the “shrunken log2 fold change” value was determined as 0.354. Take RRIRPRPPRLPRPRPRPAICPRP: the “shrunken log2 fold change” value amounted to 0.0446. In the case of RRIRWRPPRLPRPRPRPEPTPRP it was 0.857; in that of RRIRVRPPRLPRPRPRPRDHPRP, 0.172.

For RRIRNRPPRLPRPRPRPWLEPRP, the “shrunken log2 fold change” value is -0.00992. On to RRIRYRPPRLPRPRPRPRAQPRP, for which the “shrunken log2 fold change” value is 0.174.

Regarding RRIRARPPRLPRPRPRPIMEPRP, the “shrunken log2 fold change” value was 0.0783.

Turning to RRIRNRPPRLPRPRPRPSGKPRP, the “shrunken log2 fold change” value amounted to 0.0521.

In the case of RRIRQRPPRLPRPRPRPFCFPRP, the “shrunken log2 fold change” value came out at 0.117. RRIRYRPPRLPRPRPRPRTKPRP: the “shrunken log2 fold change” value turned out to be 0.011. The value for RRIRTRPPRLPRPRPRPASNPRP was -0.00255. Regarding RRIRHRPPRLPRPRPRPRKRPRP, the “shrunken log2 fold change” value is 0.246. For RRIRFRPPRLPRPRPRPDFAPRP, the “shrunken log2 fold change” value was determined as 0.0852. In the case of RRIRDRPPRLPRPRPRPVIEPRP it was 0.662; in that of RRIRKRPPRLPRPRPRPNPTPRP, 0.249; in that of RRIRQRPPRLPRPRPRPKPAPRP, 0.357.

Take RRIRARPPRLPRPRPRPTGQPRP: the “shrunken log2 fold change” value came out at 0.65. For RRIRYRPPRLPRPRPRPTRCPRP, the “shrunken log2 fold change” value was 0.175. Regarding RRIRYRPPRLPRPRPRPSHCPRP, the “shrunken log2 fold change” value is -0.549. In the case of RRIRDRPPRLPRPRPRPHSPPRP it was -0.264. In the case of RRIRPRPPRLPRPRPRPDADPRP it was 0.0741; in that of RRIRNRPPRLPRPRPRPQHGPRP, -0.0487. With RRIRCRPPRLPRPRPRPDWIPRP, the “shrunken log2 fold change” value was -0.159. As to RRIRTRPPRLPRPRPRPEGMPRP, the “shrunken log2 fold change” value was 0.18. In the case of RRIRQRPPRLPRPRPRPAKLPRP, the “shrunken log2 fold change” value was 0.0771. Turning to RRIRYRPPRLPRPRPRPHYLPRP, the “shrunken log2 fold change” value was -0.285. The value for RRIRQRPPRLPRPRPRPDEPPRP was -0.0062; that for RRIRKRPPRLPRPRPRPVKQPRP was 0.0206; that for RRIRHRPPRLPRPRPRPPHCPRP was -0.203.

As to RRIRHRPPRLPRPRPRPTIAPRP, the “shrunken log2 fold change” value was found to be 0.451. With RRIRMRPPRLPRPRPRPPQRPRP, the “shrunken log2 fold change” value stood at 1.09. Turning to RRIRQRPPRLPRPRPRPSKAPRP, the “shrunken log2 fold change” value was determined as 0.356. Turning to RRIRERPPRLPRPRPRPARAPRP, the “shrunken log2 fold change” value worked out at 0.522. RRIRGRPPRLPRPRPRPHDLPRP: the “shrunken log2 fold change” value was -0.00843.

With RRIRPRPPRLPRPRPRPVCFPRP, the “shrunken log2 fold change” value was -0.027. Turning to RRIRIRPPRLPRPRPRPSENPRP, the “shrunken log2 fold change” value was -0.356. Take RRIRHRPPRLPRPRPRPERPPRP: the “shrunken log2 fold change” value was -0.0369. In the case of RRIRMRPPRLPRPRPRPLMTPRP, the “shrunken log2 fold change” value was 1.3. For RRIRSRPPRLPRPRPRPLWEPRP, the “shrunken log2 fold change” value was -0.0343. Regarding RRIRDRPPRLPRPRPRPQCCPRP, the “shrunken log2 fold change” value was determined as 0.0263. On to RRIRERPPRLPRPRPRPQVFPRP, for which the “shrunken log2 fold change” value was -0.0552. Take RRIRFRPPRLPRPRPRPLVGPRP: the “shrunken log2 fold change” value was -0.0413. On to RRIRFRPPRLPRPRPRPKTKPRP, for which the “shrunken log2 fold change” value came to 0.0287.

For RRIRMRPPRLPRPRPRPFGCPRP, the “shrunken log2 fold change” value came out at 0.254. As for RRIRRRPPRLPRPRPRPANSPRP, the “shrunken log2 fold change” value is 0.0678.

Consider RRIRCRPPRLPRPRPRPGDHPRP, for which the “shrunken log2 fold change” value was -0.583. For RRIRPRPPRLPRPRPRPCSGPRP, the “shrunken log2 fold change” value is -0.0356.

For the origin of these results see the supplement of paper PMC9112550, “Optimization of the antimicrobial peptide Bac7 by deep mutational scanning” (BMC Biology, 2022).
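Note: peptides expressed intracellularly from a pBAD plasmid library in pooled LB shake-flask culture, induced with 0.3% L-arabinose, DNA abundance read by NGS, three biological replicates, DESeq2 with apeglm shrinkage.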
